Source: doi:10.1101/2024.01.03.573942 (bioRxiv, 2024)

B1: Macro domain of ThsA(amylo) (residues 83-297), type II Thoeris of Bacillus amyloliquefaciens Y2 (domain or fragment, UniProt I2C645 83-297, looked up)
chain: NNITLNLNGSEVEIKKGDIFEVPRNNYKVIAFNEYFDTQVDDVIIARETLNGQYIKRYYSHQDITELDQKIKDDVKLKIEEKNVERPFGGKTTRYSLGSVFKDMDFFLVAFSKFDRENRAQLKLNEYASCMLNVWNEINTLHASKEVFIPLLGSGITRHVDSDVGVNELLHIMLWTFQISKVKFREPAKVTILLYKNDHKKINFYKLKEFEKNGL

What was measured:
[1] = biological target: ModTad2 (Tad2 homolog encoded by a prophage of Myroides odoratus) (prophage of Myroides odoratus); assay: crystal structure
crystal structure = biological target: the molecule itself; assay: crystal structure

| Molecule | stoichiometry N [1] | stoichiometry N (crystal structure) |
| --- | --- | --- |
| ModTad2 (Tad2 homolog encoded by a prophage of Myroides odoratus) (natural protein) | 4 |  |
| B1 |  | 2 |
